B1: Bcl-2 homologous antagonist/killer (Homo sapiens), Q16611 (parent)
chain: MASGQGPGPPRQECGEPALPSASEEQVAQDTEEVFRSYVFYRHQQEQEAEGVAAPADPEMVTLPLQPSSTMGQVGRQLAIIGDDINRRYDSEFQTMLQHLQPTAENAYEYFTKIATSLFESGINWGRVVALLGFGYRLALHVYQHGLTGFLGQVTRFVVDFMLHHCIARWIAQRGGWVAALNLGNGPILNVLVVLGVVLLGQFVVRRFFKS
B2: Phorbol-12-myristate-13-acetate-induced protein 1 (Homo sapiens), Q13794 (parent)
chain: MPGKKARKNAQPSPARAPAELEVECATQLRRFGDKLNFRQKLLNLISKLFCSGT

Variants of: B1
Conditions: with mcl1_mouse Mcl1, P97287
Sequence of mcl1_mouse Mcl1, P97287 (P97287 whole entry): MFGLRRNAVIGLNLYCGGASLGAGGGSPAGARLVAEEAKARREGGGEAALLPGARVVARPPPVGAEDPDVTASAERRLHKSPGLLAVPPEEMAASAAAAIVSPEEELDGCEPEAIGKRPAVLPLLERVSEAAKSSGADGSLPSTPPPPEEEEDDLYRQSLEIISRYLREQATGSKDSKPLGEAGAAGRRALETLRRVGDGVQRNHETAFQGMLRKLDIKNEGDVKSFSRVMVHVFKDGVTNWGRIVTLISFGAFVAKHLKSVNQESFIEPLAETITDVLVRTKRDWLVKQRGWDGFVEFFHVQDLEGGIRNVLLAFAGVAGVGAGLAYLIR
With MASGQGPGPPRQECGEPALPSASEEQVAQDTEEVFRSYVFYRHQQEQEAEGVAAPADPEMVTLPLQPSSTMGQVGRQAAIIGDDINRRYDSEFQTMLQHLQPTAENAYEYFTKIATSLFESGINWGRVVALLGFGYRLALHVYQHGLTGFLGQVTRFVVDFMLHHCIARWIAQRGGWVAALNLGNGPILNVLVVLGVVLLGQFVVRRFFKS [L78A] the “effect of a mutation on the interaction” value was “decreasing interaction”.

Variants of: B1
Conditions: with mcl1_human MCL1, Q07820
Target sequence in this assay (Q07820 whole entry): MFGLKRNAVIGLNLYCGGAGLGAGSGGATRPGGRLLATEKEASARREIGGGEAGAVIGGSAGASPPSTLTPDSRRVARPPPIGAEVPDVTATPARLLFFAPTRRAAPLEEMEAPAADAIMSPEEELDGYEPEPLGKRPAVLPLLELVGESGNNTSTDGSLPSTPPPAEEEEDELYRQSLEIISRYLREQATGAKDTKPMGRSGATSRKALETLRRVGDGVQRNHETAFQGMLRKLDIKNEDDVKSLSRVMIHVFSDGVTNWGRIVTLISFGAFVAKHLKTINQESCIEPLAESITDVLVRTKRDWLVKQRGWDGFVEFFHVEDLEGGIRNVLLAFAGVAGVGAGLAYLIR
With MASGQGPGPPRQECGEPALPSASEEQVAQDTEEVFRSYVFYRHQQEQEAEGVAAPADPEMVTLPLQPSSTMGQVGRQAAIIGDDINRRYDSEFQTMLQHLQPTAENAYEYFTKIATSLFESGINWGRVVALLGFGYRLALHVYQHGLTGFLGQVTRFVVDFMLHHCIARWIAQRGGWVAALNLGNGPILNVLVVLGVVLLGQFVVRRFFKS [L78A] the “effect of a mutation on the interaction” value was “decreasing interaction”.

Variants of: B1
Conditions: with bax_human BAX
In the case of MASGQGPGPPRQECGEPALPSASEEQVAQDTEEVFRSYVFYRHQQEQEAEGVAAPADPEMVTLPLQPSSTMGQVGRQAAIIGDDINRRYDSEFQTMLQHLQPTAENAYEYFTKIATSLFESGINWGRVVALLGFGYRLALHVYQHGLTGFLGQVTRFVVDFMLHHCIARWIAQRGGWVAALNLGNGPILNVLVVLGVVLLGQFVVRRFFKS [L78A], the “effect of a mutation on the interaction” value is reported as “decreasing interaction”.

Variants of: B2
Conditions: with mcl1_human MCL1, Q07820
Target sequence in this assay (Q07820 whole entry): as the sequence (Q07820 whole entry) above
In the case of MPGKKARKNAQPSPARAPAELEVECATQLRREGDKLNFRQKLLNLISKLFCSGT [F32E], the “effect of a mutation on the interaction” value is reported as “decreasing interaction”.
MPGKKARKNAQPSPARAPAELEVECATQLRRFGDKENFRQKLLNLISKLFCSGT [L36E] was tested, and the “effect of a mutation on the interaction” value was “decreasing interaction”.
With MPGKKARKNAQPSPARAPAELEVECATQERRFGDKLNFRQKLLNLISKLFCSGT [L29E] the “effect of a mutation on the interaction” value was “decreasing interaction”.
